Test results: article PMC9482650, “Quantitative fragmentomics allow affinity mapping of interactomes” (Nature Communications, 2022)

T1: APBA1_2, Q02410
T1 sequence (Q02410 742-832, limits assumed, looked up): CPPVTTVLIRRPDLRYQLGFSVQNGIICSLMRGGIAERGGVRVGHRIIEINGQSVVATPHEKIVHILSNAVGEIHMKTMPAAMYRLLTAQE

T2: MPDZ_12, O75970
T2 sequence (O75970 1857-1958, limits assumed, looked up): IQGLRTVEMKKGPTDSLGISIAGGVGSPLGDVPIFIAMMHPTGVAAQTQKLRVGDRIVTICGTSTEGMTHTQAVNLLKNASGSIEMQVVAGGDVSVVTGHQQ

T3: SHANK1, Q9Y566
T3 sequence (Q9Y566 658-767, limits assumed, looked up): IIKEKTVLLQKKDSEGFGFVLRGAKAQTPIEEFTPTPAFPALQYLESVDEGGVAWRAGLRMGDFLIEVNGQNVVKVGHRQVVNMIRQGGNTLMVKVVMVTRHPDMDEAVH

T4: RAPGEF6, Q8TEU7
T4 sequence (Q8TEU7 525-625, limits assumed, looked up): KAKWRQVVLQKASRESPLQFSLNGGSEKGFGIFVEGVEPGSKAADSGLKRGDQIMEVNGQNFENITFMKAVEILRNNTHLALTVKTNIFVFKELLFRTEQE

T5: NHERF3_4, Q5T2W1
T5 sequence (Q5T2W1 373-468, limits assumed, looked up): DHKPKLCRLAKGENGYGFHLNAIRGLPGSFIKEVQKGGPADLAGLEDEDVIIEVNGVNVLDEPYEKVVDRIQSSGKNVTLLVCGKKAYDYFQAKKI

T6: CARD11, Q9BXL7
T6 sequence (Q9BXL7 662-765, limits assumed, looked up): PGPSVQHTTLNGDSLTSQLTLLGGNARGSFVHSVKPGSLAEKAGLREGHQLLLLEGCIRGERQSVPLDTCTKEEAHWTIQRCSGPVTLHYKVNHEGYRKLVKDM

T7: PDZD2_2, O15018
T7 sequence (O15018 329-429, limits assumed, looked up): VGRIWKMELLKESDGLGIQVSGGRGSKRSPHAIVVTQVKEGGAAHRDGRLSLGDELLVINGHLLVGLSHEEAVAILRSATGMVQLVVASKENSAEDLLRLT

T8: LNX2_3, Q8N448
T8 sequence (Q8N448 463-564, limits assumed, looked up): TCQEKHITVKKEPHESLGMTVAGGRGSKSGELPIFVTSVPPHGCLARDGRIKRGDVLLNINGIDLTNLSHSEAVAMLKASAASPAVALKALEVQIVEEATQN

T9: LIN7A, O14910
T9 sequence (O14910 103-200, limits assumed, looked up): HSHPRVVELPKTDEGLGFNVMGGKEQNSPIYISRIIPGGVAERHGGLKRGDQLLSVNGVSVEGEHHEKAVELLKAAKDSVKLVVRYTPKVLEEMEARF


Key:
Assay in all cases: holdup assay
Design in all cases: key: below the threshold = too weak to quantify, mostly under pKd 3.1 to 4
Conditions in all cases: plain residues with an end cap or a label only (N-terminal biotin on a linker: ado-ado)
APBA1_2, Q02410 = target: T1, APBA1_2, Q02410
NHERF4_1, Q86UT5-2 = target: NHERF4_1, Q86UT5-2
MPDZ_12, O75970 = target: T2, MPDZ_12, O75970
MAGI2_2, Q86UL8 = target: MAGI2_2, Q86UL8
DLG5_1, Q8TDM6 = target: DLG5_1, Q8TDM6
IL16_4, Q14005 = target: IL16_4, Q14005
Inadl_3, Q8NI35 = target: Inadl_3, Q8NI35
SHANK1, Q9Y566 = target: T3, SHANK1, Q9Y566
PARD3_3, Q8TEW0 = target: PARD3_3, Q8TEW0
RAPGEF6, Q8TEU7 = target: T4, RAPGEF6, Q8TEU7
GRASP, Q7Z6J2 = target: GRASP, Q7Z6J2
NHERF2_2, Q15599 = target: NHERF2_2, Q15599
MAGI1_1, Q96QZ7 = target: MAGI1_1, Q96QZ7
Inadl_8, Q8NI35 = target: Inadl_8, Q8NI35
HTRA2, O43464 = target: HTRA2, O43464
GRIP2_6, Q9C0E4 = target: GRIP2_6, Q9C0E4
TJP2_1, Q9UDY2 = target: TJP2_1, Q9UDY2
Inadl_9, Q8NI35 = target: Inadl_9, Q8NI35
SCRIB_1, Q14160 = target: SCRIB_1, Q14160
NHERF3_4, Q5T2W1 = target: T5, NHERF3_4, Q5T2W1
GRIP2_4, Q9C0E4 = target: GRIP2_4, Q9C0E4
CARD11, Q9BXL7 = target: T6, CARD11, Q9BXL7
DLG4_3, P78352 = target: DLG4_3, P78352
LNX1_3, Q8TBB1 = target: LNX1_3, Q8TBB1
PDZD2_2, O15018 = target: T7, PDZD2_2, O15018
LNX2_3, Q8N448 = target: T8, LNX2_3, Q8N448
SNX27, Q96L92 = target: SNX27, Q96L92
LIN7A, O14910 = target: T9, LIN7A, O14910
LIMK2, P53671 = target: LIMK2, P53671
LIMK2, P53671, sequence (P53671 143-248): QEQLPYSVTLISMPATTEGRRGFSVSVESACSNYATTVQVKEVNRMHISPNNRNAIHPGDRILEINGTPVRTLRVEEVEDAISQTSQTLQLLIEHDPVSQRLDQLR

IL16_4, Q14005, sequence (Q14005 1229-1329): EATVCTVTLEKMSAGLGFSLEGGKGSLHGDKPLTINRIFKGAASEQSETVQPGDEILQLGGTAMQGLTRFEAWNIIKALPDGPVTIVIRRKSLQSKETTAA
NHERF2_2, Q15599, sequence (Q15599 142-238): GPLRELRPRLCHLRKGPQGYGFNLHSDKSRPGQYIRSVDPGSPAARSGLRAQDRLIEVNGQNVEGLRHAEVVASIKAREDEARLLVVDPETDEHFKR
Inadl_3, Q8NI35, sequence (Q8NI35 359-469): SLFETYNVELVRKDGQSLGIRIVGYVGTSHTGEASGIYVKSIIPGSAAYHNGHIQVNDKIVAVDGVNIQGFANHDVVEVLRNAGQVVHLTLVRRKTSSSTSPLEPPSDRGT
PARD3_3, Q8TEW0, sequence (Q8TEW0 582-685): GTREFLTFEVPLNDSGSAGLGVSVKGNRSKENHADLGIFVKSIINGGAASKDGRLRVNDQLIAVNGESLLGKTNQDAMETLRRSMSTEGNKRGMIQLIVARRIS
NHERF4_1, Q86UT5-2, sequence (Q86UT5 other isoform, or with tags, fused parts or gaps): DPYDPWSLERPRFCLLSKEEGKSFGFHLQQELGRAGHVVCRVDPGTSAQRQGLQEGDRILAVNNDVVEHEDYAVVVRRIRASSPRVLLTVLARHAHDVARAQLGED
Inadl_9, Q8NI35, sequence (Q8NI35 1530-1615): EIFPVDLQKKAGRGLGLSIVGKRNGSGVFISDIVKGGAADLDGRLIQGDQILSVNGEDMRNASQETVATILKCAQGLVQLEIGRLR
MAGI2_2, Q86UL8, sequence (Q86UL8 410-522): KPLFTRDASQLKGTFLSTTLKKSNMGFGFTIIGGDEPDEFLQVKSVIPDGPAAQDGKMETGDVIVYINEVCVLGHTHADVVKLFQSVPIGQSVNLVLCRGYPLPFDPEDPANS
DLG5_1, Q8TDM6, sequence (Q8TDM6 617-713): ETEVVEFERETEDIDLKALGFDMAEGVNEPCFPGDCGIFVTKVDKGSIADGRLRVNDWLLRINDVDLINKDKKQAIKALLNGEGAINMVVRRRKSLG
HTRA2, O43464, sequence (O43464 355-458): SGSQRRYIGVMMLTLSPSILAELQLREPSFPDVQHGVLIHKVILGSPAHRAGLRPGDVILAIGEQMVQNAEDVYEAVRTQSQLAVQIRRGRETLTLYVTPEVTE
MAGI1_1, Q96QZ7, sequence (Q96QZ7 1-106): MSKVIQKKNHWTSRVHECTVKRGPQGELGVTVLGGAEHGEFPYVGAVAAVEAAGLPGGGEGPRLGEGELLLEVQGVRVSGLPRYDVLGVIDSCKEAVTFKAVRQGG
DLG4_3, P78352, sequence (P78352 306-403): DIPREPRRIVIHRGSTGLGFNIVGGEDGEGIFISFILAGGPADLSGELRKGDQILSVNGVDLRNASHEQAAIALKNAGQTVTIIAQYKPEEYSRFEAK
GRIP2_4, Q9C0E4, sequence (Q9C0E4 446-548): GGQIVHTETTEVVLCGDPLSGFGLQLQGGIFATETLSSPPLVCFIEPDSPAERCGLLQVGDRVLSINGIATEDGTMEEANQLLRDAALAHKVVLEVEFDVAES
GRIP2_6, Q9C0E4, sequence (Q9C0E4 648-740): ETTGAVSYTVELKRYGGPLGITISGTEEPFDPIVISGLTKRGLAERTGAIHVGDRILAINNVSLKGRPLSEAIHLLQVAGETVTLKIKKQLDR
SCRIB_1, Q14160, sequence (Q14160 718-814): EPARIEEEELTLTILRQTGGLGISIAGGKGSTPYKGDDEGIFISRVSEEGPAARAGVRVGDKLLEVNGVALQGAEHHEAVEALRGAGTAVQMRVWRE
GRASP, Q7Z6J2, sequence (Q7Z6J2 96-193): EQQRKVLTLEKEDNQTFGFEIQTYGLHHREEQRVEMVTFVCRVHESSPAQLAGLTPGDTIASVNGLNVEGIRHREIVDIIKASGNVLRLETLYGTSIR
TJP2_1, Q9UDY2, sequence (Q9UDY2 24-128): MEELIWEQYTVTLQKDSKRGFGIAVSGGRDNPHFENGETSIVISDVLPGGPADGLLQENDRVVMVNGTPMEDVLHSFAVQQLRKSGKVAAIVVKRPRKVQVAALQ
Inadl_8, Q8NI35, sequence (Q8NI35 1425-1530): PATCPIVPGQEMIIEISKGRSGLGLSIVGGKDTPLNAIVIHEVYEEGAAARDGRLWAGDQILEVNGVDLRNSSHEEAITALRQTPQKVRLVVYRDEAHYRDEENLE
LNX1_3, Q8TBB1, sequence (Q8TBB1 500-596): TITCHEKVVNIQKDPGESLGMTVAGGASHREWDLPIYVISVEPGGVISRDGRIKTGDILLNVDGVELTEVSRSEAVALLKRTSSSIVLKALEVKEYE

pKd (APBA1_2, Q02410) | pKd (NHERF4_1, Q86UT5-2) | pKd (MPDZ_12, O75970) | pKd (MAGI2_2, Q86UL8) | pKd (DLG5_1, Q8TDM6) | pKd (IL16_4, Q14005) | pKd (Inadl_3, Q8NI35) | pKd (SHANK1, Q9Y566) | pKd (PARD3_3, Q8TEW0) | pKd (RAPGEF6, Q8TEU7) | pKd (GRASP, Q7Z6J2) | pKd (NHERF2_2, Q15599) | pKd (MAGI1_1, Q96QZ7) | pKd (Inadl_8, Q8NI35) | pKd (HTRA2, O43464) | pKd (GRIP2_6, Q9C0E4) | pKd (TJP2_1, Q9UDY2) | pKd (Inadl_9, Q8NI35) | pKd (SCRIB_1, Q14160) | pKd (NHERF3_4, Q5T2W1) | Binder | further results
below the threshold | 3.57 | below the threshold | below the threshold | below the threshold | below the threshold | below the threshold | below the threshold | 3.73 | below the threshold | below the threshold | 3.47 | below the threshold | below the threshold | below the threshold | below the threshold | below the threshold | below the threshold | below the threshold | below the threshold | NVYGTESVKI [GRIA3, P42263] | pKd (GRIP2_4, Q9C0E4): below the threshold; pKd (CARD11, Q9BXL7): below the threshold; pKd (DLG4_3, P78352): below the threshold; pKd (LNX1_3, Q8TBB1): below the threshold; pKd (PDZD2_2, O15018): below the threshold; pKd (LNX2_3, Q8N448): below the threshold; pKd (SNX27, Q96L92): below the threshold; pKd (LIN7A, O14910): below the threshold; pKd (LIMK2, P53671): below the threshold
below the threshold | 4.3 | below the threshold | below the threshold | below the threshold | 3.84 | below the threshold | 4.65 | below the threshold | below the threshold | 4.68 | 4.64 | below the threshold | below the threshold | below the threshold | below the threshold | below the threshold | below the threshold | 4.06 | 4.76 | ANGLMQTSKL [SSTR5, P35346] | pKd (GRIP2_4, Q9C0E4): below the threshold; pKd (CARD11, Q9BXL7): below the threshold; pKd (DLG4_3, P78352): below the threshold; pKd (LNX1_3, Q8TBB1): below the threshold; pKd (PDZD2_2, O15018): below the threshold; pKd (LNX2_3, Q8N448): below the threshold; pKd (SNX27, Q96L92): 5.52; pKd (LIN7A, O14910): below the threshold; pKd (LIMK2, P53671): below the threshold
3.47 | 3.59 | 3.6 | 3.48 | below the threshold | below the threshold | 3.53 | below the threshold | 3.83 | below the threshold | below the threshold | 3.48 | 3.55 | below the threshold | below the threshold | 3.55 | below the threshold | 3.63 | below the threshold | below the threshold | ETSLVKGIDI [DENND5A, Q6IQ26] | pKd (GRIP2_4, Q9C0E4): below the threshold; pKd (CARD11, Q9BXL7): below the threshold; pKd (DLG4_3, P78352): below the threshold; pKd (LNX1_3, Q8TBB1): below the threshold; pKd (PDZD2_2, O15018): 4; pKd (LNX2_3, Q8N448): below the threshold; pKd (SNX27, Q96L92): below the threshold; pKd (LIN7A, O14910): below the threshold; pKd (LIMK2, P53671): below the threshold
3.47 | below the threshold | below the threshold | below the threshold | below the threshold | 3.76 | 3.5 | below the threshold | below the threshold | below the threshold | 3.57 | 3.56 | below the threshold | below the threshold | 4.3 | 4.4 | below the threshold | 3.53 | below the threshold | 3.54 | QSPPNIYYKV [EFNB3, Q15768] | pKd (GRIP2_4, Q9C0E4): below the threshold; pKd (CARD11, Q9BXL7): below the threshold; pKd (DLG4_3, P78352): below the threshold; pKd (LNX1_3, Q8TBB1): 4.47; pKd (PDZD2_2, O15018): 3.67; pKd (LNX2_3, Q8N448): below the threshold; pKd (SNX27, Q96L92): 3.89; pKd (LIN7A, O14910): below the threshold; pKd (LIMK2, P53671): below the threshold
4.71 | 4.12 | 3.77 | 5.31 | below the threshold | 3.67 | below the threshold | below the threshold | below the threshold | below the threshold | 4.53 | 3.63 | below the threshold | 5.05 | 4.52 | 3.58 | 5.34 | 4.11 | 4.26 | 3.53 | NASRTRITFV [MCM7, P33993] | pKd (GRIP2_4, Q9C0E4): below the threshold; pKd (CARD11, Q9BXL7): below the threshold; pKd (DLG4_3, P78352): 4.33; pKd (LNX1_3, Q8TBB1): below the threshold; pKd (PDZD2_2, O15018): 4.7; pKd (LNX2_3, Q8N448): below the threshold; pKd (SNX27, Q96L92): 4.85; pKd (LIN7A, O14910): below the threshold; pKd (LIMK2, P53671): below the threshold
